From article PMC7000413, “CDX-301: a novel medical countermeasure for hematopoietic acute radiation syndrome in mice” (Scientific Reports, 2020)

Biological target: the molecule itself
Assay: SEC; size exclusion chromatography of purified CDX-301; apparent molecular weight approximately 44,000 Daltons; conditions not given

B1: CDX-301, soluble recombinant human Fms-related tyrosine kinase 3 ligand (Flt3L) (ligand)
chain: TQDCSFQHSPISSDFAVKIRELSDYLLQDYPVTVASNLQDEELCGGLWRLVLAQRWMERLKTVAGSKMQGLLERVNTEIHFVTKCAFQPPPSCLRFVQTNISRLLQETSEQLVALKPWITRQNFSRCLELQCQPDSSTLPPPWSPRPLEATAP
modifications: glycoprotein with 2 potential N-linked (N100, N123) and 5 potential O-linked (S136, S137, T138, S144, T151) glycosylation sites; 3 intramolecular disulfide bonds
notes: human Flt3 ligand, the 153 N-terminal amino acids of the extracellular domain; 3 C-terminal residues of the extracellular domain, the transmembrane domain and the cytoplasmic domain eliminated; mature, secreted protein of 153 amino acids. numbers count on: the mature protein; Non-covalent homodimer; also called rhuFlt3L; Flt3 Ligand; source: manufactured under cGMPs by Celldex Therapeutics
  stoichiometry N: 2
